{
  "source": "patent US20240182536A1",
  "about": "(MURAL ONCOLOGY, published 2024)",
  "binders": {"B1": {"name": "Comparator 1 (human IL-18 variant M51K, K53S, Q56L, P57A, M60L, S105D, D110S, N111R) (ligand)", "chain": "YFGKLESKLSVIRNLNDQVLFIDQGNRPLFEDMTDSDCRDNAPRTIFIISKYSDSLARGLAVTISVKCEKISTLSCENKIISFKEMNPPDNIKDTKSDIIFFQRDVPGHSRKMQFESSSYEGYFLACEKERDLFKLILKKEDELGDRSIMFTVQNED"}},
  "key": {"[1]": {"molecular_target": "T1, human IL-18 binding protein (IL-18BP) (human, UniProt O95998 31-194)", "T1 sequence (looked up)": "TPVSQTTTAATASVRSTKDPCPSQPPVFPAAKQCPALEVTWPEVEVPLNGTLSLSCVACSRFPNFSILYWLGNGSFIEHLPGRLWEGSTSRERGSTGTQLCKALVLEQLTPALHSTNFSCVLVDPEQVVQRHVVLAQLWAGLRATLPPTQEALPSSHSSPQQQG", "experiment": "cell-based or functional assay"}, "[2]": {"molecular_target": "T2, IL-18 receptors on HEK-Blue IL-18 reporter cells (InvivoGen) (UniProt Q13478 19-541; O95256 20-599)", "T2 sequence (looked up) 1": "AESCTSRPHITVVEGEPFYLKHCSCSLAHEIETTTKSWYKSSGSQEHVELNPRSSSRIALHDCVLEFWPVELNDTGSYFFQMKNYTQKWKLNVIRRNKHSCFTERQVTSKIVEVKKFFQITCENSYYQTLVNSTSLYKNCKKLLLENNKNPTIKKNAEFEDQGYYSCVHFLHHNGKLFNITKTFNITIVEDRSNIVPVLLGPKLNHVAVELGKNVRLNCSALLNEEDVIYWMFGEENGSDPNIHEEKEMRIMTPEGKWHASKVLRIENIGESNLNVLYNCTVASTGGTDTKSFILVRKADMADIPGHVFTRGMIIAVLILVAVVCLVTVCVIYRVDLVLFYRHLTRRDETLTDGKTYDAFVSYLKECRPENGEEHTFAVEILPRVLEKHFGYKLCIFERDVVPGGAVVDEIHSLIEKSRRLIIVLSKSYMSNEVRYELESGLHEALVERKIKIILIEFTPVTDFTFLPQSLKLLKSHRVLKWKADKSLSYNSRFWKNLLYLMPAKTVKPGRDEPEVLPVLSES", "T2 sequence (looked up) 2": "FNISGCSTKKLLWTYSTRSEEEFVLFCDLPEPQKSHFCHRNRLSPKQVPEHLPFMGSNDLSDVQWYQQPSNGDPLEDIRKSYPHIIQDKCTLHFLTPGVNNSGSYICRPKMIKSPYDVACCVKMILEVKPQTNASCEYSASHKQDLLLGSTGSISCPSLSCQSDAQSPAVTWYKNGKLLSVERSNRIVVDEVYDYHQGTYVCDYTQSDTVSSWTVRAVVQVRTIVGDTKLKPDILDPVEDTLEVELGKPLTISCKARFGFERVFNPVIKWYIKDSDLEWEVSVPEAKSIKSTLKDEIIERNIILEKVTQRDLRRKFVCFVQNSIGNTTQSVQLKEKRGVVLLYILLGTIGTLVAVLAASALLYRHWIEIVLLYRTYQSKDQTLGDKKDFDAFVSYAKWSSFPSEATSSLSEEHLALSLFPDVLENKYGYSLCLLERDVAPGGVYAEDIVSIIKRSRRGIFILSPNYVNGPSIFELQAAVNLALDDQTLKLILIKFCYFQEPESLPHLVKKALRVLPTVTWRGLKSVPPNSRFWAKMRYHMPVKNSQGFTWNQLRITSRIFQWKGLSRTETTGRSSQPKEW", "experiment": "cell-based or functional assay"}, "[3]": {"molecular_target": "T1, human IL-18 binding protein (IL-18BP)", "experiment": "Octet BLI", "method": "(§1) Octet 96red instrument was used to determine affinities of IL18 proteins to BP or receptors. 5-10 ug/ml analyte proteins were used for loading on Sartorius tips (AHC or SA). […] 120-180 s loading, 200 s association and 800 s dissociation were used for kinetics. 3-7 data points were used to calculate affinities."}, "[4]": {"molecular_target": "T3, human IL-18 receptor alpha (IL-18Rα) (human, UniProt Q13478 19-329, limits assumed)", "T3 construct": "also called hu IL-18Ra; IL-18R alpha", "T3 sequence (looked up)": "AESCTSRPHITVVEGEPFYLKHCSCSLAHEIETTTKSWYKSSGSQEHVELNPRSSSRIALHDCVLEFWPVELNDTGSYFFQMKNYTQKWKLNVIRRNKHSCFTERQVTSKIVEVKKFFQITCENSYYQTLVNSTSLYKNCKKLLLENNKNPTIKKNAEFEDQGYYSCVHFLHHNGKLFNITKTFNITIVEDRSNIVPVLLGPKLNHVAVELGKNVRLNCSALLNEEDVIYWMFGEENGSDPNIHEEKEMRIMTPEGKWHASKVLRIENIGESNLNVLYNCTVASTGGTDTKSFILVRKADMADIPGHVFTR", "experiment": "Octet BLI", "method": "as §1"}, "[5]": {"molecular_target": "T4, human IL-18R alpha/beta pair (IL-18Rab) (human, UniProt Q13478 19-329; O95256 20-356)", "T4 construct": "also called hu IL-18Rab", "T4 sequence (looked up) 1": "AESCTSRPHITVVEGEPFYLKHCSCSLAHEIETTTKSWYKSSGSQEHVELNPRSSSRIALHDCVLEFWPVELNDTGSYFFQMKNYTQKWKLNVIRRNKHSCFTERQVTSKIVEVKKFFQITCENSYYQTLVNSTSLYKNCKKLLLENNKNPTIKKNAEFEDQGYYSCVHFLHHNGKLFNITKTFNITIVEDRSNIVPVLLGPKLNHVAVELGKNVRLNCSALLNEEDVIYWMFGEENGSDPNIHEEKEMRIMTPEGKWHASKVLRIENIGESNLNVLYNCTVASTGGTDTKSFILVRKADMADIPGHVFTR", "T4 sequence (looked up) 2": "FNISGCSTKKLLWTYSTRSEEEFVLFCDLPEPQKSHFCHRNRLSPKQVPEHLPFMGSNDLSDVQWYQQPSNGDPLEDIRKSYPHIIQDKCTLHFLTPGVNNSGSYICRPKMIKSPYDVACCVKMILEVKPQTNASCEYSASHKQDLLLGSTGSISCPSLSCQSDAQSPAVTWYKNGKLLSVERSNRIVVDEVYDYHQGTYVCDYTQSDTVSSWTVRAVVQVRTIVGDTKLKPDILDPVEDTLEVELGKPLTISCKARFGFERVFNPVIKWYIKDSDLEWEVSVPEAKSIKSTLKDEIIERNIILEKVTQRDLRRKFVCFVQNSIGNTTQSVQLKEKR", "experiment": "Octet BLI", "method": "as §1"}, "[6]": {"molecular_target": "T1, human IL-18 binding protein (IL-18BP)", "experiment": "cell-based or functional assay", "remark": "listed apart in the source"}, "[7]": {"molecular_target": "T2, IL-18 receptors on HEK-Blue IL-18 …", "experiment": "cell-based or functional assay", "remark": "listed apart in the source"}, "[8]": {"molecular_target": "T1, human IL-18 binding protein (IL-18BP)", "experiment": "cell-based or functional assay", "remark": "listed apart in the source"}, "[9]": {"molecular_target": "T2, IL-18 receptors on HEK-Blue IL-18 …", "experiment": "cell-based or functional assay", "remark": "listed apart in the source"}, "[10]": {"molecular_target": "T1, human IL-18 binding protein (IL-18BP)", "experiment": "cell-based or functional assay", "remark": "listed apart in the source"}, "[11]": {"molecular_target": "T5, IL-18 receptor (IL-18Rα and IL-18Rβ) (UniProt Q13478 19-541; O95256 20-599, limits assumed)", "T5 sequence (looked up) 1": "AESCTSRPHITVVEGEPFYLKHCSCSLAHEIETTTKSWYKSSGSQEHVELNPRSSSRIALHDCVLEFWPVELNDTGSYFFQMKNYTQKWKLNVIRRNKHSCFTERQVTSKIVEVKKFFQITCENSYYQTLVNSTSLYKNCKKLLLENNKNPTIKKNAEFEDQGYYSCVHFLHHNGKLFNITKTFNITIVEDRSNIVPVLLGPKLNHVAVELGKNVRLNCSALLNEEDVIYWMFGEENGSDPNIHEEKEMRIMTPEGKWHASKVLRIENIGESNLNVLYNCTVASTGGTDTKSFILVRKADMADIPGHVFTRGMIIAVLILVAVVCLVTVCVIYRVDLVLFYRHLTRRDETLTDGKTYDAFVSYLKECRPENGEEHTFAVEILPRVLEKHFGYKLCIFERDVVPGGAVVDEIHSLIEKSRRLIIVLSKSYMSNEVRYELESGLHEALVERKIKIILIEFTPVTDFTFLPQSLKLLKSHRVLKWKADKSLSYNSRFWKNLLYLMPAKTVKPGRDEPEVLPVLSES", "T5 sequence (looked up) 2": "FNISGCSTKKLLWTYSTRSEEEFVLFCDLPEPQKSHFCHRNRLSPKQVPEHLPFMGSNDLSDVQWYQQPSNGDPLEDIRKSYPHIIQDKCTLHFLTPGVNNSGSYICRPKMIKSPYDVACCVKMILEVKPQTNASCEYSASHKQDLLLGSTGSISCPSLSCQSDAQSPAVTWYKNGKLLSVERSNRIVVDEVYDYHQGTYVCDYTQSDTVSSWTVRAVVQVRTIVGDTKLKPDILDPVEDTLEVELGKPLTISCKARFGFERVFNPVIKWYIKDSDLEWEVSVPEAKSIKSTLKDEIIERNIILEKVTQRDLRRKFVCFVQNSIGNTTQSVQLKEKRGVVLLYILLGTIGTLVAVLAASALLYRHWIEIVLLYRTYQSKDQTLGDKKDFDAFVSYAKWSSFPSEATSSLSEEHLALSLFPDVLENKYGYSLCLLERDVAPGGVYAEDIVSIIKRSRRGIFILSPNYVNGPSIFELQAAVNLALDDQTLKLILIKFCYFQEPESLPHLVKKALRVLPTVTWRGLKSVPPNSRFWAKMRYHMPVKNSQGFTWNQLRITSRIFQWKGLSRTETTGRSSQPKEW", "experiment": "cell-based or functional assay"}, "[12]": {"molecular_target": "T5, IL-18 receptor (IL-18Rα and IL-18Rβ)", "experiment": "cell-based or functional assay", "remark": "listed apart in the source"}},
  "data": [
    {"binder": "B1", "values": [
      {"measurement": "Fold Change (BP/NO BP), 50 nM BP", "setting": "[1]", "result": 2.5, "unit": "fold"},
      {"measurement": "Fold Change (BP/NO BP), 300 nM BP", "setting": "[1]", "result": 0.83, "unit": "fold"},
      {"measurement": "HEK-Blue EC50 pM, +50 nM BP", "setting": "[1]", "result": 0.04, "unit": "pM"},
      {"measurement": "HEK-blue EC50 (pM) + 300 nM BP", "setting": "[1]", "result": 0.11, "unit": "pM"},
      {"measurement": "HEK-Blue EC50 pM, NO BP (50 nM BP run)", "setting": "[2]", "result": 0.02, "unit": "pM"},
      {"measurement": "HEK-Blue EC50 pM, NO BP (300 nM BP run)", "setting": "[2]", "result": 0.13, "unit": "pM"},
      {"measurement": "binding result", "setting": "[3]", "result": "no binding"},
      {"measurement": "Kd", "setting": "[4]", "result": 16, "unit": "nM"},
      {"measurement": "Kd", "setting": "[5]", "result": 0.43, "unit": "nM"},
      {"measurement": "HEK-Blue Ec50 (pM), +IL-18BP (50 nM)", "setting": "[6]", "result": 0.22, "unit": "pM"},
      {"measurement": "HEK-Blue Ec50 (pM), -IL-18BP", "setting": "[7]", "result": 0.15, "unit": "pM"},
      {"measurement": "HEK-Blue Activity Assay Ec50 (pM), +300 nM hu IL-18BP", "setting": "[8]", "result": 0.09, "unit": "pM"},
      {"measurement": "HEK-Blue Activity Assay Ec50 (pM), -hu IL-18BP", "setting": "[9]", "result": 0.08, "unit": "pM"},
      {"measurement": "EC50 pM, IFN gamma expression in PBMCs, + 300 nM BP", "setting": "[10]", "result": 1.82, "unit": "pM"},
      {"measurement": "EC50 pM, IFN gamma expression in PBMCs, no BP", "setting": "[11]", "result": 1.22, "unit": "pM"},
      {"measurement": "EC50 pM, IFN gamma expression in PBMCs", "setting": "[12]", "result": 0.093, "unit": "pM"}
    ]}
  ]
}
